Results from patent US20130302348A1 (MIT, published 2013).

Experiments:
[1] = target: HA of H1N1 influenza strain PR8 (A/Puerto Rico/8/34) (influenza virus A/Puerto Rico/8/34 …, UniProt P03452 18-565); assay: cell-based or functional assay
[2] = target: HA polypeptide of subtype H1 (Example 1 ELISA) (influenza virus, strain ); assay: ELISA on HA-coated plate, KD from a fit of fractional saturation (Example 2)
[3] = target: HA polypeptide of subtype H3 (Example 1 ELISA) (influenza virus, strain ); assay: as above
[4] = target: biotinylated H1 (A/Solomon Islands/03/06) HA polypeptide (influenza virus A/Solomon Islands/03/06)
BSA = target: T1, BSA (Bos taurus, UniProt P02769); assay: ELISA, KD table (Example 2)
T1 construct: also called 1% BSA
T1 sequence (P02769 25-607 limits assumed): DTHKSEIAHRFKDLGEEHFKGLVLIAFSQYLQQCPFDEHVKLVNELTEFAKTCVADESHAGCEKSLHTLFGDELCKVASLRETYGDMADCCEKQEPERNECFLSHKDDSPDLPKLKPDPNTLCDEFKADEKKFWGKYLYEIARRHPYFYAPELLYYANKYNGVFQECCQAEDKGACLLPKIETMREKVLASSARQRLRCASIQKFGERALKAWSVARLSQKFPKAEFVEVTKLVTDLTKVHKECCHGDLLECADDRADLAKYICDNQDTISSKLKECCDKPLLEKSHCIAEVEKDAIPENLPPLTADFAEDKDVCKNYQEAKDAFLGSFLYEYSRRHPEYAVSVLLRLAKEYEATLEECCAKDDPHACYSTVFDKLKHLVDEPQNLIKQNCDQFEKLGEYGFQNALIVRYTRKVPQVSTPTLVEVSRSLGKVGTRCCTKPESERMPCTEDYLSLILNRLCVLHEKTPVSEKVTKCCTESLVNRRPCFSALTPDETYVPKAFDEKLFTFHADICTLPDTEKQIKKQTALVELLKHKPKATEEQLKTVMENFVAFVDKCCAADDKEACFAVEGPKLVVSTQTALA

B1: exemplary antibody (VH-1 combined with VL-1; Table 4) (antibody, V domains shown)
VH: EVQLLESGGGLVKPGQSLKLSCAASGFTFTSYGMHWVRQPPGKGLEWVAVISYDGSYKYYADSVQGRFTISRDNSKNTLYLQMNSLRAEDTAVYYCAKDSELRSLLYFEWLSQGYFNPWGAGTTLTVSS
VL: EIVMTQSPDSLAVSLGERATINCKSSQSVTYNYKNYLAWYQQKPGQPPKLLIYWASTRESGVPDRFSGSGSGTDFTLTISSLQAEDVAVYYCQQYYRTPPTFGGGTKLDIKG
notes: also called exemplary influenza antibody
[1]
  IC50, microneutralization assay followed by qPCR of viral yield in MDCK cells: 0.5 µg/mL
[2]
  Kd: 0.074 nM
[3]
  Kd: 37.2 nM
[4]
  kon: 297000 M⁻¹ s⁻¹
BSA
  binding result: no binding
